Source: US20140031525A1, “MUTANT G-PROTEIN COUPLED RECEPTOR PROTEINS AND METHODS FOR PRODUCING THEM” (Heptares Therapeutics Limited, priority 2011, published 2014)

Key:
[1] = tested on: G proteins; assay: G protein activation by the engineered receptor; type: biochemical
[2] = Thermostability assay of detergent-solubilised receptor by [3H]-ZM241385 binding; type: physicochemical, human; conditions: in 0.1% decylmaltoside, 30 min heating
Experimental: FIG. 1: Thermostability of the adenosine A2A receptor alone, in combination with T4 lysozyme fusion or with thermostabilising mutations. Receptors were solubilised from transiently transfected cells using 0.025% DDM. Samples were heated at the specified temperature for 30 minutes, quenched on ice and the amount of receptor remaining was determined by a single-point binding assay using 100 nM [^3H]-ZM-241,385. Data is shown for the wild type A2a receptor (circles), A2A-T4L (squares), A2A-StaR1 (previously Rant21, upright triangles), A2A-T4 engineered to include the A2A-StaR1 mutations in combination with the T4L fusion (A54L^2.52/T88A^3.36/K122A^4.43 N239A^6.41) (inverted triangles) and vs A2a-StaR2 (diamonds).
Transfected HEK293T cells were resuspended in ice cold buffer [50 mM Tris pH7.4; 400 mM NaCl; 1% DDM and protease inhibitors (Complete, Roche)]. After incubation for 1 h at 4° C., samples were centrifuged (16,000×g, 20 min, 4° C.) and the supernatant was detergent exchanged into 0.1% decylmaltoside (DM) from Ni-NTA resin.
Thermostability was assessed by incubating with [^3H]-ZM241385 radioligand (100 nM) at increasing temperatures for 30 min followed by a 5 minutes incubation on ice. Receptor bound and free radioligand were separated by gel filtration as previously described'

- G protein activation [1]: no longer activated G proteins
B1: A2A-StaR2: human adenosine A2A receptor with mutations A54L, T88A, K122A, V239A, R107A, L202A, L235A, S277A (protein, UniProt P29274 1-412, looked up, variant A54L T88A K122A V239A R107A L202A L235A S277A)
Adenosine receptor A2a: MPIMGSSVYITVELAIAVLAILGNVLVCWAVWLNSNLQNVTNYFVVSLAAADILVGVLAIPFAITISTGFCAACHGCLFIACFVLVLAQSSIFSLLAIAIDRYIAIAIPLRYNGLVTGTRAAGIIAICWVLSFAIGLTPMLGWNNCGQPKEGKNHSQGCGEGQVACLFEDVVPMNYMVYFNFFACVLVPLLLMLGVYLRIFAAARRQLKQMESQPLPGERARSTLQKEVHAAKSAAIIAGLFALCWLPLHIINCFTFFCPDCSHAPLWLMYLAIVLAHTNSVVNPFIYAYRIREFRQTFRKIIRSHVLRQQEPFKAAGTSARVLAAHGSDGEQVSLRLNGHPPGVWANGSAPHPERRPNGYALGLVSGGSAQESQGNTGLPDVELLSHELKGVCPEPPGLDDPLAQDGAGVS
- apparent thermostability [2]: 47 °C
